According to US6403765B1, “Truncated Apaf-1 and methods of use thereof” (Thomas Jefferson University, priority 1998, dated 2002):
Changes are numbered by the printed parent chain.

Assays:
Experiment in all cases: In vitro caspase 9 activation assay: recombinant Apaf-1 variants incubated with in vitro translated procaspase-9
Format in all cases: biochemical
procaspase-9 [1] = biological target: T1, procaspase-9 (Homo sapiens, UniProt P55211)
T1 construct: schematic representation of full length procaspase-9; made in house; host or cells: coupled in vitro transcription/translation in rabbit reticulocyte lysate (TNT Kit, Promega)
T1 sequence (P55211 134-416): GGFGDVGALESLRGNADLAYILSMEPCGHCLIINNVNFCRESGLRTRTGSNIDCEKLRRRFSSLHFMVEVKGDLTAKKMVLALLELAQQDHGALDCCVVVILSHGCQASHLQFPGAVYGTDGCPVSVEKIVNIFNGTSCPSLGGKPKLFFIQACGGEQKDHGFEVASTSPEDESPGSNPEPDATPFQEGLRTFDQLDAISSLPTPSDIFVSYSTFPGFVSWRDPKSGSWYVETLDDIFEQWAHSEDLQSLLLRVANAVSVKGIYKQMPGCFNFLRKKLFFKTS

procaspase-9 [2] = biological target: T2, procaspase-9 (Homo sapiens, UniProt P55211); conditions: in the absence of cytochrome c or dATP; 200 ng protein, 2 h at 30° C.; SDS-PAGE and autoradiography (FIG. 2A)
T2 construct: schematic representation of full length procaspase-9; made in house; host or cells: coupled in vitro transcription/translation in rabbit reticulocyte lysate (TNT Kit, Promega)
T2 sequence (P55211 1-416): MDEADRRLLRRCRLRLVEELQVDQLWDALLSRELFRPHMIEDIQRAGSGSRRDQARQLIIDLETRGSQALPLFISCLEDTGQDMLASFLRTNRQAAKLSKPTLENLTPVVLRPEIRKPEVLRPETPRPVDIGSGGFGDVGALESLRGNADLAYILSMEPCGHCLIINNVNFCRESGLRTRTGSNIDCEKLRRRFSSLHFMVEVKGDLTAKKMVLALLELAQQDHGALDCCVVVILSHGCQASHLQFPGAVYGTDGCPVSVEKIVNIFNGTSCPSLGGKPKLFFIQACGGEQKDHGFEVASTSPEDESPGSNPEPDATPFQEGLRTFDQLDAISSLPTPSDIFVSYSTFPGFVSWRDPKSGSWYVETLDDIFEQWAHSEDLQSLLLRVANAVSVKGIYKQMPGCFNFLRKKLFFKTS

procaspase-9 [3] = biological target: T3, procaspase-9 (Homo sapiens, UniProt P55211, C287A)
T3 construct: schematic representation of full length procaspase-9; made in house; host or cells: coupled in vitro transcription/translation in rabbit reticulocyte lysate (TNT Kit, Promega)
T3 sequence (P55211 1-416 C287A): T2 sequence (P55211 1-416) with C287A

procaspase-9 [4] = biological target: T4, procaspase-9 (Homo sapiens, UniProt P55211, D315A); conditions: 35S-labeled substrate, FIG. 3
T4 construct: schematic representation of full length procaspase-9; made in house; host or cells: coupled in vitro transcription/translation in rabbit reticulocyte lysate (TNT Kit, Promega)
T4 sequence (P55211 1-416 D315A): T2 sequence (P55211 1-416) with D315A

procaspase-9 [5] = tested on: procaspase-9
[6] = in the presence of non-radiolabeled WT procaspase-9, FIG. 14

processing of prodomainless procaspase-9 (residues 134-416) (procaspase-9 [1]; 35S-labeled substrate, FIG. 3): prevented processing | processing of 35S-labeled prodomainless procaspase-9 (procaspase-9 [1]; [6]): not | processing of procaspase-9 active site C287A mutant (procaspase-9 [3]; 35S-labeled substrate, FIG. 3): unable to promote processing | processing of 35S-labeled C287A mutant procaspase-9 (procaspase-9 [3]; [6]): able to induce processing | processing of D315A mutant procaspase-9 (procaspase-9 [4]): unable to process | processing of WT or D330A mutant procaspase-9 (procaspase-9 [5]; 35S-labeled substrate, FIG. 3): produced the p35 fragment
B1: Apaf-530: truncated Apaf-1 (residues 1-530) lacking its WD-40 repeats, recombinant (protein, UniProt O14727 1-530, looked up, fragment)
chain: MDAKARNCLLQHREALEKDIKTSYIMDHMISDGFLTISEEEKVRNEPTQQQRAAMLIKMILKKDNDSYVSFYNALLHEGYKDLAALLHDGIPVVSSSSGKDSVSGITSYVRTVLCEGGVPQRPVVFVTRKKLVNAIQQKLSKLKGEPGWVTIHGMAGCGKSVLAAEAVRDHSLLEGCFPGGVHWVSVGKQDKSGLLMKLQNLCTRLDQDESFSQRLPLNIEEAKDRLRILMLRKHPRSLLILDDVWDSWVLKAFDSQCQILLTTRDKSVTDSVMGPKYVVPVESSLGKEKGLEILSLFVNMKKADLPEQAHSIIKECKGSPLVVSLIGALLRDFPNRWEYYLKQLQNKQFKRIRKSSSYDYEALDEAMSISVEMLREDIKDYYTDLSILQKDVKVPTKVLCILWDMETEEVEDILQEFVNKSLLFCDRNGKSFRYYLHDLQVDFLTEKNCSQLQDLHKKIITQFQRYHQPHTLSPDQEDCMYWYNFLAYHMASAKMHKELCALMFSLDWIKAKTELVGPAHLIHEFVEYR
processing of procaspase-9 to produce a 35 kDa fragment (p35) (procaspase-9 [2]): able to promote processing of procaspase-9 | autoprocessing of C287A and R355E mutant procaspase-9 (procaspase-9 [5]; mutants incubated separately or together, 1 hour at 30° C., FIG. 13): none of the mutants were able to autoprocess
